Source: the supplement of paper PMC11316812
± gives the standard deviation of the averaged measurements.

Assays:
[1] = tested on: MCF7; test: percentage of EdU-negative (G0-arrested) nuclei per well, 72 h; higher = more G0 arrest; details: reference: sequence is the full UniProt precursor, the tested protein was the secreted form or ectodomain
[2] = tested on: hTERT-HMEC; test: as above; details: reference: sequence is the full UniProt precursor, the tested protein was the secreted form or ectodomain
[3] = protein concentration 0.0257143 µM
[4] = protein concentration 0.257143 µM
[5] = protein concentration 0.013725 µM
[6] = protein concentration 0.13725 µM
[7] = protein concentration 0.0225 µM
[8] = protein concentration 0.01375 µM
[9] = protein concentration 0.1375 µM
[10] = protein concentration 0.00575 µM
[11] = protein concentration 0.0575 µM
[12] = protein concentration 0.0175 µM
[13] = protein concentration 0.0134286 µM
[14] = protein concentration 0.134286 µM
[15] = protein concentration 0.03125 µM
[16] = protein concentration 0.3125 µM
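Further: secreted proteins added to cultured cells, EdU pulse at the end, nuclei found by Hoechst imaging, EdU status from nuclear versus surrounding ring intensity ratio, PBS as neutral control.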

Sequence of Q6UXN8 (chain, as listed by the source): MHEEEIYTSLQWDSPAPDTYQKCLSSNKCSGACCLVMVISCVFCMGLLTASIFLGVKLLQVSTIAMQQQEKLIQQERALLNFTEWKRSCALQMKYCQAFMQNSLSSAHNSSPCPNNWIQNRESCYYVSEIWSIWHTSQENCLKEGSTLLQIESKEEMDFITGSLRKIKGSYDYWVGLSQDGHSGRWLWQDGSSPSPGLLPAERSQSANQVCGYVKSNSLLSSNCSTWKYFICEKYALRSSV
Sequence of Q8IWL2 (chain, as listed by the source): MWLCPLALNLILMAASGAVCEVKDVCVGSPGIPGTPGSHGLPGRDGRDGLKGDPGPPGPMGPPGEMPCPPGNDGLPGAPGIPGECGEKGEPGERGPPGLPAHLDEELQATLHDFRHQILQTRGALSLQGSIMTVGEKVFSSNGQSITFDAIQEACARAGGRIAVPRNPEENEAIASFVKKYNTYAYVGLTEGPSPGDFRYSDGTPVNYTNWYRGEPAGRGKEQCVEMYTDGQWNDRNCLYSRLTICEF
Sequence of Q8IWL1 (chain, as listed by the source): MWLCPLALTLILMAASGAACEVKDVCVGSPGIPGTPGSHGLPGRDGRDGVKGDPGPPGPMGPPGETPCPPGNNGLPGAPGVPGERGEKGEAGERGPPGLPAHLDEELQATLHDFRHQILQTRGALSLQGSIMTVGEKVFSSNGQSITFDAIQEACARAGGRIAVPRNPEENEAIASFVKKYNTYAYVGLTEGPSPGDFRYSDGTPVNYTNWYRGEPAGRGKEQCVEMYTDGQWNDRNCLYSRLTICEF
Sequence of Q6ZMJ2 (chain, as listed by the source): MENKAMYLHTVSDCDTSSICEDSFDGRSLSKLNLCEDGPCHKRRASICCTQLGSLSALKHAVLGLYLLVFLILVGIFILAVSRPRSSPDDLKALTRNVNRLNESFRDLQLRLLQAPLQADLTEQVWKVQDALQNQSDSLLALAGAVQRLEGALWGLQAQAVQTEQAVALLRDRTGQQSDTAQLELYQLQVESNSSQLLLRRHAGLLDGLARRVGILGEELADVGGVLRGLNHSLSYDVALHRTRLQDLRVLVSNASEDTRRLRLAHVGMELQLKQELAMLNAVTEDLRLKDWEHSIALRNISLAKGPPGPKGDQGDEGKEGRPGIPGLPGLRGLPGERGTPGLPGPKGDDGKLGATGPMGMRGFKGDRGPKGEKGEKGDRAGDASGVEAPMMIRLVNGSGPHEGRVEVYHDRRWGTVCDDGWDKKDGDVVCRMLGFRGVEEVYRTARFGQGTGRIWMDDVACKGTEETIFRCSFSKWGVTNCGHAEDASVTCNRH

## MYRHGISSQRSWPLWTTIFIFLGVAAILGVTIGLLVHFLAVEKTYYYQGDFHISGVTYNDNCENAASQASTNLSKDIETKMLNAFQNSSIYKEYVKSEVIKLLPNANGSNVQLQLKFKFPPAEGVSMRTKIKAKLHQMLKNNMASWNAVPASIKLMEISKAASEMLTNNCCGRQVANSIITGNKIVNGKSSLEGAWPWQASMQWKGRHYCGASLISSRWLLSAAHCFAKKNNSKDWTVNFGIVVNKPYMTRKVQNIIFHENYSSPGLHDDIALVQLAEEVSFTEYIRKICLPEAKMKLSENDNVVVTGWGTLYMNGSFPVILQEDFLKIIDNKICNASYAYSGFVTDTMLCAGFMSGEADACQNDSGGPLAYPDSRNIWHLVGIVSWGDGCGKKNKPGVYTRVTSYRNWITSKTGL [Q86T26]
[1]; [3]
  percentage of EdU-negative: 23.6 ± 1.4%
[1]; [4]
  percentage of EdU-negative: 25.2 ± 1.9%
[2]; [3]
  percentage of EdU-negative: 5.22 ± 1.8%
[2]; [4]
  percentage of EdU-negative: 5.69 ± 1%

## MYSAPSACTCLCLHFLLLCFQVQVLVAEENVDFRIHVENQTRARDDVSRKQLRLYQLYSRTSGKHIQVLGRRISARGEDGDKYAQLLVETDTFGSQVRIKGKETEFYLCMNRKGKLVGKPDGTSKECVFIEKVLENNYTALMSAKYSGWYVGFTKKGRPRKGPKTRENQQDVHFMKRYPKGQPELQKPFKYTTVTKRSRRIRPTHPA
[1]; [5]
  percentage of EdU-negative: 24.26 ± 0.046%
[1]; [6]
  percentage of EdU-negative: 22.8 ± 0.92%
[2]; [5]
  percentage of EdU-negative: 4.7 ± 1.1%
[2]; [6]
  percentage of EdU-negative: 5.41 ± 0.5%

## MYTAIPQSGSPFPGSVQDPGLHVWRVEKLKPVPVAQENQGVFFSGDSYLVLHNGPEEVSHLHLWIGQQSSRDEQGACAVLAVHLNTLLGERPVQHREVQGNESDLFMSYFPRGLKYQEGGVESAFHKTSTGAPAAIKKLYQVKGKKNIRATERALNWDSFNTGDCFILDLGQNIFAWCGGKSNILERNKARDLALAIRDSERQGKAQVEIVTDGEEPAEMIQVLGPKPALKEGNPEEDLTADKANAQAAALYKVSDATGQMNLTKVADSSPFALELLISDDCFVLDNGLCGKIYIWKGRKANEKERQAALQVAEGFISRMQYAPNTQVEILPQGHESPIFKQFFKDWK
[1]; [7]
  percentage of EdU-negative: 24.6 ± 2.7%
[1]; protein concentration 0.225 µM
  percentage of EdU-negative: 26.02 ± 0.14%
[2]; [7]
  percentage of EdU-negative: 5.3073 ± 0.0047%
[2]; protein concentration 0.225 µM
  percentage of EdU-negative: 6.38 ± 0.68%

## O60486
[1]; [8]
  percentage of EdU-negative: 23.37 ± 0.13%
[1]; [9]
  percentage of EdU-negative: 26.9 ± 3%
[2]; [8]
  percentage of EdU-negative: 4.77 ± 0.19%
[2]; [9]
  percentage of EdU-negative: 10.8 ± 1%

## P0C0L4
[1]; [10]
  percentage of EdU-negative: 24.22 ± 0.12%
[1]; [11]
  percentage of EdU-negative: 26.1 ± 0.47%
[2]; [10]
  percentage of EdU-negative: 4.91 ± 0.16%
[2]; [11]
  percentage of EdU-negative: 5.66 ± 0.38%

## P08572
[1]; protein concentration 0.008 µM
  percentage of EdU-negative: 24.1 ± 2.1%
[1]; protein concentration 0.08 µM
  percentage of EdU-negative: 25.4 ± 0.67%
[2]; protein concentration 0.008 µM
  percentage of EdU-negative: 4.54 ± 0.088%
[2]; protein concentration 0.08 µM
  percentage of EdU-negative: 5.63 ± 0.46%

## P16144
[1]; [12]
  percentage of EdU-negative: 24.1 ± 3.2%
[1]; protein concentration 0.175 µM
  percentage of EdU-negative: 28.6 ± 0.6%
[2]; [12]
  percentage of EdU-negative: 5.31 ± 0.28%
[2]; protein concentration 0.175 µM
  percentage of EdU-negative: 5.29 ± 0.16%

## P20908
[1]; [13]
  percentage of EdU-negative: 23.71 ± 0.12%
[1]; [14]
  percentage of EdU-negative: 28.6 ± 1.4%
[2]; [13]
  percentage of EdU-negative: 5.6 ± 0.17%
[2]; [14]
  percentage of EdU-negative: 25.8 ± 0.52%

## P32881
[1]; [15]
  percentage of EdU-negative: 46 ± 0.63%
[1]; [16]
  percentage of EdU-negative: 49.3 ± 0.71%
[2]; [15]
  percentage of EdU-negative: 25.9 ± 1.2%
[2]; [16]
  percentage of EdU-negative: 30.4 ± 4.1%

## Q6UXN8
[1]; [7]
  percentage of EdU-negative: 24.9 ± 2.2%
[1]; protein concentration 0.225 µM
  percentage of EdU-negative: 25.2 ± 1.4%
[2]; [7]
  percentage of EdU-negative: 4.27 ± 1%
[2]; protein concentration 0.225 µM
  percentage of EdU-negative: 4.93 ± 0.51%

## Q6ZMJ2
[1]; [3]
  percentage of EdU-negative: 24.7 ± 1.6%
[1]; [4]
  percentage of EdU-negative: 24.2 ± 0.89%
[2]; [3]
  percentage of EdU-negative: 4.96 ± 0.49%
[2]; [4]
  percentage of EdU-negative: 8.139 ± 0.079%

## Q8IWL1
[1]; [7]
  percentage of EdU-negative: 28.1 ± 0.35%
[1]; protein concentration 0.225 µM
  percentage of EdU-negative: 26.4 ± 0.85%
[2]; [7]
  percentage of EdU-negative: 5.29 ± 1.1%
[2]; protein concentration 0.225 µM
  percentage of EdU-negative: 6.43 ± 1.3%

## Q8IWL2
[1]; [15]
  percentage of EdU-negative: 25.4 ± 0.46%
[1]; [16]
  percentage of EdU-negative: 26.7 ± 0.54%
[2]; [15]
  percentage of EdU-negative: 5.36 ± 0.08%
[2]; [16]
  percentage of EdU-negative: 6.18 ± 0.17%
